This note sets out measurements from patent US20080058263A1 (published 2008).

Where a chain is given by its changes, count along the chain named.

T1: VEGFR-3-Fc (UniProt P35916 25-328)
T1 construct: domain: first three Ig domains; conditioned supernatant of 293T cells; also called VEGFR-3-Fc fusion protein; not shown: Fc fragment of the pIg vector
T1 sequence (looked up): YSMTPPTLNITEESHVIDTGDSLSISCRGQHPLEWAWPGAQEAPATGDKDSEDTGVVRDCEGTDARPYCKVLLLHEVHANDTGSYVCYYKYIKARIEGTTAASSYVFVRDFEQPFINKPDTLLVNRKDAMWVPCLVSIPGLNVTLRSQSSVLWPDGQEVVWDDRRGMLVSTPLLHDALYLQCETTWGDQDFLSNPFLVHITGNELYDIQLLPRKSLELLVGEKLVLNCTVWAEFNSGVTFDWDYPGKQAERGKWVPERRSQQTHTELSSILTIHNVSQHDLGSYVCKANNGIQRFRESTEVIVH

B1: 12-3 (ligand)
chain: GQNHHEVVKFMDVYQRSYCHPIETLVDIFQEFGVATNTFFKPPCVSVYRCGGCCNSEGLQCVPTEESNITMQIMRIKPHQGQHIGEMSFLQHNKCECRPKKDLVFEQKLISEEDLNSAVDHHHHHH
B2: 12-7 (ligand)
chain: B1 chain with L90A, Q91N, N93T, K94S, E96R, R98M, P99S, K101L
notes: also called super-VEGF
B3: 23-6 (ligand)
chain: AHYNTEILKSIDNEWRKTQCMPREVCIDVGKEYPDEIEYIFKPPCVSVYRCGGCCNDEGLECMNTSTSYLSKTLFEIKPHQGQHIGEMSFANHTSCRCMSKLD
B4: 23-8 (ligand)
chain: B3 chain with D57S, E61Q
B5: 51-6 (ligand)
chain: AHYNTEILKSIDNEWRKTQCMPIETLVDIFQEYPDEIEYIFKPSCVPLMRCGGCCNDEGLECMNTSTSYLSKTLFEIKPHQGQHIGEMSFANHTSCRCMSKLD
B6: 22-6 (ligand)
chain: B3 chain with Y33F, P34G, D35V, E36A, I37T, E38N, Y39T, I40F
B7: 22-8 (ligand)
chain: B3 chain with Y33F, P34G, D35V, E36A, I37T, E38N, Y39T, I40F, D57S, E61Q
B8: 24-6 (ligand)
chain: AHYNTEILKSIDNEWRKTQCMPREVCIDVGKEFGVATNTFFKPSCVPLMRCGGCCNDEGLECMNTSTSYLSKTLFEIKPHQGQHIGEMSFANHTSCRCMSKLD
B9: 21-6 (ligand)
chain: B3 chain with P44S, S47P, V48L, Y49M
B10: 23-2 (ligand)
chain: B3 chain with A91L, N92Q, T94N, S95K, R97E, M99R, S100P, L102K
B11: 21-2 (ligand)
chain: AHYNTEILKSIDNEWRKTQCMPREVCIDVGKEYPDEIEYIFKPSCVPLMRCGGCCNDEGLECMNTSTSYLSKTLFEIKPHQGQHIGEMSFLQHNKCECRPKKD
B12: 21-8 (ligand)
chain: B3 chain with P44S, S47P, V48L, Y49M, D57S, E61Q
B13: 23-4 (ligand)
chain: B11 chain with S44P, P47S, L48V, M49Y, D57S, E61Q
B14: 12-9 (ligand)
chain: GQNHHEVVKFMDVYQRSYCHPIETLVDIFQEFGVATNTFFKPPCVSVYRCGGCCNDEGLECVPTEESNITMQIMRITVPLSQGPKPVTISFLQHNKCECRPKKDLVFEQKLISEEDLNSAVDHHHHHH
B15: 12-11 (ligand)
chain: B14 chain with D56S, E60Q
notes: also called super-VEGF
B16: 12-15 (ligand)
chain: B14 chain with D56S, E60Q, L92A, Q93N, N95T, K96S, E98R, R100M, P101S, K103L
B17: 12-13 (ligand)
chain: B14 chain with L92A, Q93N, N95T, K96S, E98R, R100M, P101S, K103L, D104N
notes: clone acquired a point mutation, Asp to Asn at the last C-terminal amino acid of the hybrid
B18: 41-15 (ligand)
chain: AHYNTEILKFMDVYQRSYCHPREVCIDVGKEYPDEIEYIFKPSCVPLMRCGGCCNSEGLQCVPTEESNITMQIMRITVPLSQGPKPVTISFANHTSCRCMSKLD
B19: 63-15 (ligand)
chain: GQNHHEVVKFMDVYQRSYCHPREVCIDVGKEYPDEIEYIFKPPCVSVYRCGGCCNSEGLQCVPTEESNITMQIMRITVPLSQGPKPVTISFANHTSCRCMSKLD
B20: 63-13 (ligand)
chain: B19 chain with S56D, Q60E
B21: 43-15 (ligand)
chain: B18 chain with S43P, P46S, L47V, M48Y
B22: 64-15 (ligand)
chain: GQNHHEVVKFMDVYQRSYCHPREVCIDVGKEFGVATNTFFKPSCVPLMRCGGCCNSEGLQCVPTEESNITMQIMRITVPLSQGPKPVTISFANHTSCRCMSKLD
B23: 64-13 (ligand)
chain: B22 chain with S56D, Q60E
B24: 61-11 (ligand)
chain: GQNHHEVVKFMDVYQRSYCHPREVCIDVGKEYPDEIEYIFKPSCVPLMRCGGCCNSEGLQCVPTEESNITMQIMRITVPLSQGPKPVTISFLQHNKCECRPKKD
B25: 61-9 (ligand)
chain: B24 chain with S56D, Q60E
B26: 62-15 (ligand)
chain: B22 chain with S43P, P46S, L47V, M48Y
B27: 63-11 (ligand)
chain: B24 chain with S43P, P46S, L47V, M48Y

T2 sequence (P17948 27-338): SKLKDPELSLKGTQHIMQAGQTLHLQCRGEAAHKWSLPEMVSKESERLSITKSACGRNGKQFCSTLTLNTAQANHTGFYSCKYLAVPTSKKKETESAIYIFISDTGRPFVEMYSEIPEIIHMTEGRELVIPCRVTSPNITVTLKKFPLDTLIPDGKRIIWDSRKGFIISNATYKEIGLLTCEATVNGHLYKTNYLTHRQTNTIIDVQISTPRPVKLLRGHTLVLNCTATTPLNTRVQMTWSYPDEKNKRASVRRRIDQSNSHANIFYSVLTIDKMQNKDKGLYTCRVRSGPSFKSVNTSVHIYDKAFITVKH

The first test concerns the target T2, VEGFR-1-Fc (UniProt P17948 27-338).
T2 construct: domain: first three Ig domains; expressed in Drosophila S2 cells, purified on Protein A sepharose; also called VEGFR-1-Fc fusion protein; not shown: Fc fragment from the Signal-pIgPlus vector
In words: receptor-Fc IP. A digest of the protocol:
(§1)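 Binding of ligand from sample supernatant measured by pentahistidine-antibody immunoprecipitation. IP mix: PBS with 1.5% BSA, 0.06% Tween 20, 3 μg/ml heparin and 400 ng/ml fusion protein, added 1:2 to sample supernatant.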
As to B1, the binding result is reported as “binds”.
Regarding B2, the binding result is listed as “binds”.
The same measure, in the same setting: the result for B3 reads “no binding”.
Consider B4, for which the binding result is “no binding”.
Consider B5, for which the binding result is “no binding”.
On the same count and under the same terms, under B6 stands “no binding”; under B7, “no binding”; under B8, “no binding”.
With B9, the binding result was “no binding”.
Same read-out and setting: under B10 stands “no binding”; under B11, “no binding”; under B12, “no binding”.
For the molecule B13, the binding result is recorded as “no binding”.
In the case of B14, the binding result was “binds”.
As to B15, the binding result is given as “binds”.
As for B16, the binding result is listed as “no binding”.
In the case of B17, the binding result is reported as “binds”.
Consider B18, for which the binding result was “no binding”.
In the case of B19, the binding result is given as “no binding”.
Consider B20, for which the binding result is recorded as “no binding”.
Consider B21, for which the binding result is “no binding”.
As to B22, the binding result is given as “no binding”.
Regarding B23, the binding result is recorded as “no binding”.
Same read-out and setting: under B24 stands “no binding”.
Turning to B25, the binding result is on record as “no binding”.
As for B26, the binding result is “no binding”.
Regarding B27, the binding result is on record as “no binding”.

A further test has as its target T1, VEGFR-3-Fc. In words: receptor-Fc IP. A digest of the protocol:
as §1
For B1, the binding result is “no binding”.
On to B2, for which the binding result is “binds”.
On to B3, for which the binding result is given as “no binding”.
For the molecule B4, the binding result was “no binding”.
On the same count and under the same terms, under B5 stands “no binding”; under B6, “binds”.
Turning to B7, the binding result was “binds”.
As for B8, the binding result is “no binding”.
Still for that read-out and setting: the result for B9 reads “no binding”; that for B10, “no binding”.
Turning to B11, the binding result is on record as “no binding”.
B12: the binding result is reported as “no binding”.
For B13, the binding result is recorded as “no binding”.
As for B14, the binding result is given as “binds”.
Consider B15, for which the binding result was “binds”.
Regarding B16, the binding result was “binds”.
For the molecule B17, the binding result is given as “binds”.
As for B18, the binding result is “no binding”.
The same measure, in the same setting: under B19 stands “no binding”.
Same read-out and setting: the result for B20 reads “no binding”; that for B21, “no binding”; that for B22, “no binding”.
For B23, the binding result is on record as “no binding”.
Turning to B24, the binding result was “no binding”.
As to B25, the binding result was “no binding”.
For the molecule B26, the binding result is “no binding”.
Take B27: the binding result is recorded as “no binding”.

A further test deals with T3, VEGFR-2-Fc (UniProt P35968 20-322).
T3 construct: domain: first 3 Ig domains; conditioned supernatant of 293T cells; also called VEGFR-2-Fc fusion protein; not shown: Fc fragment of the pIg vector
T3 sequence (P35968 20-322): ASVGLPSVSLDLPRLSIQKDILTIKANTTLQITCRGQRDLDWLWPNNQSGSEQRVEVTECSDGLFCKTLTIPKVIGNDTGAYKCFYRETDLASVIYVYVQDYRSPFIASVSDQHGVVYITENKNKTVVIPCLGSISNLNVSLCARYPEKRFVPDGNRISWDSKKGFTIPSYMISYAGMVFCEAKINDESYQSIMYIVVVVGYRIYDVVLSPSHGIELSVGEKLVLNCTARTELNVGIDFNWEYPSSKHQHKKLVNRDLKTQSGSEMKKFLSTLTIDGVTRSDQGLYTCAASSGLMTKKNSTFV
In words: receptor-Fc IP. A digest of the protocol:
as §1
B1: the binding result is “binds”.
In the case of B2, the binding result is “binds”.
On the same count and under the same terms, under B3 stands “no binding”; under B4, “no binding”.
As for B5, the binding result was “no binding”.
On to B6, for which the binding result was “binds”.
Regarding B7, the binding result is recorded as “binds”.
Take B8: the binding result is listed as “no binding”.
Same read-out and setting: under B9 stands “no binding”.
Take B10: the binding result is “no binding”.
Still for that read-out and setting: the result for B11 reads “no binding”; that for B12, “no binding”.
On to B13, for which the binding result was “no binding”.
On the same count and under the same terms, under B14 stands “no binding”; under B15, “binds”; under B16, “binds”.
For the molecule B17, the binding result is “no binding”.
Same read-out and setting: under B18 stands “no binding”; under B19, “no binding”; under B20, “no binding”.
Still for that read-out and setting: under B21 stands “no binding”.
Same read-out and setting: the result for B22 reads “no binding”.
As for B23, the binding result is “no binding”.
For the molecule B24, the binding result is “no binding”.
For the molecule B25, the binding result is “no binding”.
With B26, the binding result is listed as “no binding”.
Consider B27, for which the binding result was “no binding”.
